This note sets out measurements from patent publication US20230242658A1 (published 2023).

Test [1] deals with T1, cynomolgus monkey 4-1BB on CHO-K1 cells (cynomolgus monkey).
T1 chain: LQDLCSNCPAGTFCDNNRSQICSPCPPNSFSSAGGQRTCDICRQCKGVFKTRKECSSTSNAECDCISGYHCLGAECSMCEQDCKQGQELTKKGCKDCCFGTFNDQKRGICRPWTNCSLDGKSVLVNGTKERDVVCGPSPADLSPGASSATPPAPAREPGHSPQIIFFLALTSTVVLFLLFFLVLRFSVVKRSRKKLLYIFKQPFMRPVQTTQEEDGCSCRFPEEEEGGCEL
Put plainly: FACS; FIG. 12G. On the technique in general: Flow cytometry measures light scatter and fluorescence of single cells or particles in a stream.

Test [2] deals with T2, human 4-1BB on CHO-K1 cells (human, UniProt Q07011 24-255). Put plainly: FACS; FIG. 11H.
In test [3] the target is T2, human 4-1BB on CHO-K1 cells. As to the kind of experiment: FACS.
Target sequence in this assay (Q07011 24-255): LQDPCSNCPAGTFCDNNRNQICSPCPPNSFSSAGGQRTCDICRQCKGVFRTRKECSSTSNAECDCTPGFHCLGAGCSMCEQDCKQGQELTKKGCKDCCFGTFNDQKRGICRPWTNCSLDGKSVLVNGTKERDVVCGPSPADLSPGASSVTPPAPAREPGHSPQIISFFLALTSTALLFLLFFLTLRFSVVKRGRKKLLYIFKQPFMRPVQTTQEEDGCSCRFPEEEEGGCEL
Test [4] concerns the target T1, cynomolgus monkey 4-1BB on CHO-K1 cells. As to the kind of experiment: FACS; FIG. 12F.
Test [5] addresses T2, human 4-1BB on CHO-K1 cells. As to the kind of experiment: FACS blocking of 4-1BBL; FIG. 14F.
Test [6] deals with T1, cynomolgus monkey 4-1BB on CHO-K1 cells. As to the kind of experiment: FACS; FIG. 12I.
In test [7] the target is T2, human 4-1BB on CHO-K1 cells. Put plainly: FACS; FIG. 11J.
Test [8] shares this target. As to the kind of experiment: FACS blocking of 4-1BBL; FIG. 14H.
Test [9] deals with T1, cynomolgus monkey 4-1BB on CHO-K1 cells. As to the kind of experiment: FACS.
The target of test [10] is T2, human 4-1BB on CHO-K1 cells. Put plainly: FACS. The source holds these as a separate data set.
Test [11] concerns the target human PD-L1 on CHO-K1 cells (human, UniProt Q9NZQ7 19-290). Put plainly: FACS.
The target of test [12] is T1, cynomolgus monkey 4-1BB on CHO-K1 cells. As to the kind of experiment: FACS; FIG. 12H.
Test [13] addresses T2, human 4-1BB on CHO-K1 cells. Put plainly: FACS; FIG. 11I.
For test [14] the target is unchanged. Put plainly: FACS blocking of 4-1BBL; FIG. 14G.
For test [15] the target is unchanged. As to the kind of experiment: FACS blocking of 4-1BBL binding.

Broadly, the EC50 is the concentration giving half of the maximal effect. As a reminder, the IC50 is the midpoint of a concentration-inhibition curve.

Chain of human PD-L1 on CHO-K1 cells (Q9NZQ7 19-290): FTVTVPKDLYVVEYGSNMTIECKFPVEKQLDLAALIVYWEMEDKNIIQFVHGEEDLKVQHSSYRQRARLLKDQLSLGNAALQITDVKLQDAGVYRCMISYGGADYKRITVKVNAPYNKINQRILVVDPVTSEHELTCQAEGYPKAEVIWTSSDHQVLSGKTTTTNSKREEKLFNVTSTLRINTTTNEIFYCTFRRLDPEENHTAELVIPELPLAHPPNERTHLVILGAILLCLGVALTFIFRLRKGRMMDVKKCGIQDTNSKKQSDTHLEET

B1: PR004469 (antibody, V domains shown)
VH: EVQLLESGGGLVQPGGSLRLSCAASGFTFSNYAMSWFRQPPETGLKWVSSIDASGGDTYYADSVKGRFTISRDNSKNTLYLQMNSLRAEDTAVYYCAKEGSHGTDDSHYDVDVWGQGTTVTVSS
Regarding B1, the EC50 in test [1] was determined as 0.568 nM; in test [2], 1.29 nM.

B2: PR001838 (antibody, V domains shown)
VH: EVQLLESGGGLVQPGGSLRLSCAASGFTFSNYAMSWFRQPPETGLKWVSSIDGSGGDTYYADSVKGRFTISRDNSKNTLYLQMNSLRAEDTAVYYCAKEGSHGTDDSHYDVDVWGQGTTVTVSS
Regarding B2, the EC50 in test [3] stood at 0.248 nM; in test [1], 0.329 nM; in test [4], 1.09 nM; in test [2] it was 0.851 nM. Also, the IC50 in test [5] worked out at 1.61 nM.

B3: PR007291 (antibody, V domains shown)
VH: EVQLVESGGGLVKPGGSLRLSCVTSGFTFSDYYMNWIRQAPGKGQEWVSYISGNGSTIYYADSVKGRFTISRDNAKNSLYLQMNSLRAEDTAVYYCARVRPGGSGNYWDWFDPWGQGTPVTVSS
B3: the results for the EC50 in test [6] and in [7] were 1.95 nM and 2.47 nM, respectively. Further, in test [8], the IC50 came out at 3.29 nM.

B4: PR003549 (bispecific antibody)
light: DIQMTQSPSTLSASVGDRVTVTCRASQSIYIWLAWYQQKPGKAPNLLIYKASSLETGVPSRFSGSGSGTEFTLTISSLQPDDFATYYCQQYYGSSRTFGQGTKVEIKRTVAAPSVFIFPPSDEQLKSGTASVVCLLNNFYPREAKVQWKVDNALQSGNSQESVTEQDSKDSTYSLSSTLTLSKADYEKHKVYACEVTHQGLSSPVTKSFNRGEC
heavy: EVQLVESGGGLVQPGGSLRLSCAASGFTFSSYWMSWVRQAPGKGLEWVANIKQEGSEKYYVDSVKGRFTISRDNAKNSLYLQMNSLRAEDTAVYYCARDRAVAGAFDIWGQGTMVTVSSASTKGPSVFPLAPSSKSTSGGTAALGCLVKDYFPEPVTVSWNSGALTSGVHTFPAVLQSSGLYSLSSVVTVPSSSLGTQTYICNVNHKPSNTKVDKKVEPKSCDKTHTCPPCPAPEAAGGPSVFLFPPKPKDTLMISRTPEVTCVVVDVSHEDPEVKFNWYVDGVEVHNAKTKPREEQYNSTYRVVSVLTVLHQDWLNGKEYKCKVSNKALGAPIEKTISKAKGQPREPQVYTLPPSREEMTKNQVSLTCLVKGFYPSDIAVEWESNGQPENNYKTTPPVLDSDGSFFLYSKLTVDKSRWQQGNVFSCSVMHEALHNHYTQKSLSLSPGEPKSSDKTHTPPPPPRTEVQLLESGGGLVQLGGSLRLSCAASGFTFSRYAMTWVRQAPEKGLEWVSSISGSGDDTYYGDSVKGRFTISRDNSQNTVYLQMNSLRAEDTAVYFCAKEKAGTTGDYYYNVDVWGQGTTVTVSS
As to B4, the EC50 in test [9] is 1.86 nM; in test [10], 1.9 nM; in test [11], 1.56 nM.

B5: PR007286 (antibody, V domains shown)
VH: EVQLVESGGGLVKPGGSLRLSCAASGFTFSDYYMSWIRQAPGKGLEWVSYISSSGSTIYYADSVKGRFTISRDNAKNSLYLQMNSLRAEDTAVYYCARVKPVAGTWDWFDPWGQGTPVTVSS
With B5, the EC50 was 4.61 nM in test [12] and 4.37 nM in test [13]. The molecule also displayed an IC50 in test [14] of 7.54 nM.

B6: PR000448 (antibody, V domains shown)
VH: QVQLQQWGAGLLKPSETLSLTCAVYGGSFSGYYWSWIRQPPGKGLEWIGEIQHSGSTDSNPSLKGRVTFSVDTSKNQFSLKLNSVTAADTAVYYCARLTGPFDYWGQGTLVTVSS
VL: EIVMTQSPATLSVSPGERATLSCRASQSISSILAWYQQKPGQAPRLLIYGASTRATGIPARFSGSGSGTEFTLTISSLQSEDFAVYYCQQYYNWPLTFGGGTKVEIKR
B6 showed an EC50 in test [15] of 2.05 nM.

B7: PR007288 (antibody, V domains shown)
VH: EVQLVESGGGLVKPGGSLRLSCAASGFTFSDYYMSWFRQAPGKGLEWVSYISGSGSIIDYADSVKGRFTISRDNAKNSLYLQMNSLRAEDTAVYYCSREREAVAGTLDFDYWGQGTLVTVSS
In the case of B7, the half-maximal effective concentration (EC50) amounted to 0.903 nM in test [12] and 1.21 nM in test [13]. The molecule further registered an IC50 in test [14] of 1.63 nM.

B8: PR007289 (antibody, V domains shown)
VH: EVQLVESGGGLVKPGGSLRLSCAASGFTFSDYYMSWFRQAPGKGLEWVSYISSSGSTQDYADSVKGRFTISRDNAKNSLYLQMNSLRAEDTAVYYCAREREPVAGTLDFDNWGQGTPVTVSS
With B8, the EC50 in [6] was determined as 4.11 nM; in [7], 2.49 nM. In addition, half-maximal inhibition in test [8] (IC50) required 11 nM.

B9: PR007287 (antibody, V domains shown)
VH: EVQLEESGGGLVKPGGSLRLSCAASGFTFSDYYMSWFRQAPGKGLEWVSYISSSGSITDYADAVKGRFNISRDNAKNSLYLQMNSLRAEDTAVYYCAREREAVAGTLDFDNWGQGTLVTVSS
Turning to B9, the results for the EC50 in [12] and in test [13] were 1.17 nM and 1.55 nM, respectively. This molecule also displayed an IC50 in test [14] of 2.55 nM.

B10: PR007290 (antibody, V domains shown)
VH: EVQLVESGGGVVQPGRSLRLSCAASGFTFSDYYMSWFRQAPGKGLEWVSYISSSGTTIDYADSVKGRFTISRDNAKNSLYLQMNSLRAEDTAVYYCAREREEVAGTLDFDYWGQGTPVTVSS
As to B10, the EC50 stood at 2.5 nM in test [6] and 2.02 nM in test [7]. The molecule also showed a half-inhibitory concentration (IC50) in test [8] of 5.11 nM.
